The text below walks through data of the supplement of paper PMC12042874.

± gives the uncertainty stated by the source.

The nature of the data set: amyloid nucleation score (Sup35N fusion, yeast selection) (log enrichment); library NNK2; higher = more nucleation; inactive = no reads after selection. Put shortly:
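Growth for 7 days at 30°C on medium lacking adenine and uracil followed a 24-hour induction with 100 μM copper sulfate of psi-negative yeast expressing peptides of 20 random codons fused to Sup35N. Input and output plasmid inserts were sequenced with Illumina, and sequences with under 100 input reads were excluded. Nucleation score is the DiMSum log enrichment of output over input reads, centred on the mode score of non-aggregating sequences.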

In the case of KYFMVVLVNIIFLYPGL, the amyloid nucleation score entry was “inactive”. In the case of LLVGIGMFEEQFQLYHI it was -0.867 ± 0.29; in that of SSVVISRVPTARICSEEKGP, “inactive”. Turning to IDNYFIRVKTFSDFMSSLDG, the amyloid nucleation score entry was “inactive”.

In the case of GMLSTTALNLLNMVICYYSL, the amyloid nucleation score was found to be 5.447 ± 0.035. The substance LDVKERTCL yielded an amyloid nucleation score of 0.261 ± 0.54. In the case of HQIHLSY it was -0.593 ± 1.1. As for VGLNYNAMAHTSRGSF, the amyloid nucleation score turned out to be 0.236 ± 0.38. For the substance RSGYGWTVLFERLSKHCEFK, the amyloid nucleation score was -0.301 ± 0.39. As for SRKNRSRVSTTISR, the amyloid nucleation score was -0.731 ± 0.3. Take YPITPFQA: the amyloid nucleation score is -0.872 ± 1.1.

Take SFWLTMMCNVGTMALVLSNL: the amyloid nucleation score is -0.065 ± 0.31.

In the case of LHQRLV, the amyloid nucleation score turned out to be 0.195 ± 0.27. The substance WRELKSQVDWRLDILSGSYR came in with an amyloid nucleation score of 0.971 ± 0.26. As for SAIKYIGILAMRDQDQASQI, the amyloid nucleation score was -1.59 ± 0.62. As for CHVVVVLEF, the amyloid nucleation score came out at 2.71 ± 0.078.

Turning to PNSLYGYKIAFSLDFFVRVY, the amyloid nucleation score entry was “inactive”. In the case of ADSWWSLYNIFEFSSINLNV it was “inactive”. Consider LSSGIMSGCEGGAWCCH, for which the amyloid nucleation score was 0.605 ± 0.66. In the case of RVCPFSQYHVFVS it was -0.155 ± 0.18; in that of TEMWFDGRNSRMIQAH, 0.081 ± 0.36; in that of IVSIT, -0.271 ± 0.24. Substance DIKYCRSFCWLSTIFRTLGP had an amyloid nucleation score of 0.249 ± 0.37. Turning to KDAFT, the amyloid nucleation score is -0.895 ± 0.49. The substance CIQTSSREVSFRSIATDGST came in with an amyloid nucleation score of 4.27 ± 0.047. On to VDCTEV, for which the amyloid nucleation score was 1.26 ± 0.26. Substance WLTYRCSVYYFYVEYWKSVY displayed an amyloid nucleation score of 0.256 ± 0.74. LYKSGA returned an amyloid nucleation score of -0.574 ± 0.28. As to QYRCGRRLVQRSEVVIVPVC, the amyloid nucleation score result was “inactive”. Then VEVGLIVGSCSILI, with -0.525 ± 0.64; and QFWHKSVSTCLWCCSVAGSW, with 8.73 ± 0.071; and CIFWVRCKFYGNLNFGCLYD, with 7 ± 0.078. Substance NVPFCIVV gave an amyloid nucleation score of 0.213 ± 0.57. Turning to NRWYKLRLYICYDLRIAVFN, the amyloid nucleation score was -1.58 ± 1.1. Then LGHILV, with “inactive”. On to VFWGILMRGVRRTFSDCAGT, for which the amyloid nucleation score is -1.47 ± 0.75. For the substance ISRILRKYNVIVRSSSVSRG, the amyloid nucleation score was -1.06 ± 0.31. Turning to VEAIWHWVCYWSGMWSLGPG, the amyloid nucleation score is 3.69 ± 0.057.

In turn, IVIGRQCPTWFDVARYR came in with an amyloid nucleation score of 1.07 ± 0.34. SWHPRKRWNVCERF: the amyloid nucleation score is 0.273 ± 0.49.

In the case of IVVNNCSEVLEVGSDDAVKR, the amyloid nucleation score result is “inactive”. FFDSSCIFITHLL returned an amyloid nucleation score of 1.77 ± 0.18.

In the case of LERWYYPMS, the amyloid nucleation score worked out at 0.513 ± 0.16. Then KAMYFYSRTVRPMMGSEEGS, with -0.072 ± 0.4. For MRHRCGHKKVSGV, the amyloid nucleation score is 1.27 ± 0.49. IRFWLRRFICD yielded an amyloid nucleation score of -0.528 ± 0.36. As to SFNDESGFLLSSGYPISFKR, the amyloid nucleation score entry was “inactive”.

HFLVHFVFDLIRCVLAFVYC showed an amyloid nucleation score of 0.61 ± 0.12.

CKFWYLARWWIFLWSPRYK yielded an amyloid nucleation score of -0.153 ± 1.1. For the substance LRFNDFA, the amyloid nucleation score entry was “inactive”.

Consider LGIDAYCPWCVYECFSSRGE, for which the amyloid nucleation score was 9.586 ± 0.057. Then LYEMDSKC, with -0.603 ± 1.1. In the case of SQMSGSFRRSNGWIAV, the amyloid nucleation score result was “inactive”.

As for GRRDNMVRCKRLCRWRVWTA, the amyloid nucleation score amounted to 0.157 ± 0.55.

In turn, VYLYGPQLLSRWWIQLCCQM yielded an amyloid nucleation score of 2.96 ± 0.15.

Turning to VYFAKRLFVLFIM, the amyloid nucleation score entry was “inactive”. Substance IFPLDQLQIFWLSLTMTMQL had an amyloid nucleation score of -0.829 ± 1.1.

In the case of LGCYTYLQEVRMGEDTARGG, the amyloid nucleation score amounted to 0.386 ± 0.39. In turn, VESLRLRRSMVRNLILSSSC yielded an amyloid nucleation score of -0.125 ± 0.63. In turn, IMRVMPICRFVII displayed an amyloid nucleation score of 1.25 ± 0.12. VTIYGVLSRLNDCFFRGVWD: the amyloid nucleation score entry is “inactive”. With ILYYLGWVASALEGHYLDES, the amyloid nucleation score is -0.853 ± 0.55. Turning to RRMYMQPTKLPFYIPGRMCP, the amyloid nucleation score entry is “inactive”. LLLCYS registered an amyloid nucleation score of -0.344 ± 0.27. For the substance HLDLDPPM, the amyloid nucleation score was 0.284 ± 1.1. In turn, WIIIFSKFV yielded an amyloid nucleation score of -0.695 ± 0.79. In the case of SPLASYIAVLWGNVR it was -0.515 ± 1.1. In the case of YDEKMRVHDKYKTQPLERGR it was 4.37 ± 0.1; in that of DCDMVFFLGIFFKSSGGKGN, 2.57 ± 0.083. In the case of KAGLWYNCPAMYDGYLRLKA, the amyloid nucleation score is 1.98 ± 0.15. For RISKRAHECLIMQG, the amyloid nucleation score is -0.108 ± 1.1.

Turning to GCRGHFMYRTW, the amyloid nucleation score entry was “inactive”. Then IQASSLMVAKERFWGDLWWL, with 4.34 ± 0.1; and YAGTH, with -1.72 ± 0.48. In the case of RSLLVEFRRYKQRH it was 6.238 ± 0.062; in that of RIITGPGWTVAGSPVRGVRG, 1.68 ± 0.19; in that of FVTTENLVNSLVLNMARAKK, 3.44 ± 0.097. On to GMIFFHGNSLGVTDDSHK, for which the amyloid nucleation score is 0.811 ± 0.82. Consider WHRVFKGLS, for which the amyloid nucleation score is 0.658 ± 0.26. In the case of SFCMPGISLFLVFRQTDGHM it was “inactive”; in that of ETGSRGAN, 0.263 ± 0.25; in that of CVAVNLCVAALV, -0.049 ± 0.76. As for VDPHFFIRLFLEYHNVMSWY, the amyloid nucleation score result is “inactive”. In the case of AIYLWSF, the amyloid nucleation score stood at 4.85 ± 0.054. In the case of LKQLKISRRADNYVTQCNLV it was 2.91 ± 0.11; in that of TCVAACTSRRGGISRLLPGN, -0.295 ± 0.38. Regarding CFRKFRMEEPLGIRFSHLDT, the amyloid nucleation score is -0.345 ± 0.21. HILRQGQYGYVCCASASYEC: the amyloid nucleation score was found to be 7.312 ± 0.038.

On to HEVLTVHNKAFRKYLSCIFR, for which the amyloid nucleation score result was “inactive”. Regarding ICIVVVCDFCIYRMCATGTV, the amyloid nucleation score was 0.735 ± 0.28. In the case of YSSNGPGEKWRYR it was 2.04 ± 0.09. The substance NMNGF showed an amyloid nucleation score of -0.532 ± 1. In the case of RMIPCLLRFGTYLFF it was -0.509 ± 1.1; in that of GLGRKYNMRRRLKLVFWRSD, 4.23 ± 0.084. Then LCSYANKDFKVHRSHDFVRV, with 0.369 ± 0.43. For the substance TCKMIAISRRGIDPGKAMHS, the amyloid nucleation score is -1.16 ± 0.49. As to EKMLF, the amyloid nucleation score was 0.528 ± 0.34. Regarding NRSTRGWGVVSTLCYRLSSF, the amyloid nucleation score result was “inactive”. Turning to HVSFLIDRNTMRGLMASSNN, the amyloid nucleation score entry was “inactive”. Substance KFNCLGLWDEYHNSM yielded an amyloid nucleation score of 0.259 ± 0.43.

QEALLWTLNTLKKLSGRGST yielded an amyloid nucleation score of -1.44 ± 0.55. In the case of SFFPS it was -0.301 ± 0.45.

In the case of ILELDMLLCKKVTHL, the amyloid nucleation score was found to be 4.3 ± 0.089. On to LPVREALMRKWMVQLLVFVS, for which the amyloid nucleation score turned out to be 2.05 ± 0.1. In the case of VYEGSLCLAYERLTGMGFIK it was -0.382 ± 0.29; in that of LFSYDDMGALRVNMDWFYNF, “inactive”. In turn, IIKECEWNCIVTSDIAYVRW had an amyloid nucleation score of 5.481 ± 0.052. In the case of CMPMISRVLGCDNSYYMSSA it was 0.029 ± 0.4; in that of MRGTRACIFKRQDTSNTLNE, -1.42 ± 0.62. The substance TSKFSLRVFDLFSIYGYGHT had an amyloid nucleation score of -0.125 ± 0.45. RNIGAR came in with an amyloid nucleation score of 0.635 ± 0.16. Then IRFRVLVPNLGKASDRFQVP, with -0.19 ± 0.53; and YPTASVTATSHTFILSSNKN, with 3.48 ± 0.063; and YLIIKCDKRCVEDFDALLE, with 4.4 ± 0.071. Substance PLQPNAIRRSMVSF had an amyloid nucleation score of 0.894 ± 0.43. Then SQVTISHSNEHMVGACAVYR, with -0.456 ± 0.54; and YVLSRDRSWIHGGVGELGAW, with 0.969 ± 0.53; and LSWYLTYTRLTSLVG, with -0.097 ± 0.42.

RTLFV came in with an amyloid nucleation score of -0.146 ± 0.63. Take ASSIG: the amyloid nucleation score stood at 0.072 ± 0.26. Substance IMLGTFMRNLQNLQHFVRHV showed an amyloid nucleation score of 0.337 ± 0.57. ACLFWIYARRHRLAWVVFIW displayed an amyloid nucleation score of -0.487 ± 1.1.

MSIRIGEWPVHSGAYEESLK had an amyloid nucleation score of 0.223 ± 0.45. In the case of SWNSV it was -0.442 ± 0.41.

VYLCARKGM returned an amyloid nucleation score of -0.287 ± 0.79. LSLLRFLNCMRYCLCIGLAS registered an amyloid nucleation score of 4.14 ± 0.093. For YVPPIGGNRHAHLVASCLGS, the amyloid nucleation score came out at 0.434 ± 0.21. On to CTSCERSLAKRLQGWHIF, for which the amyloid nucleation score is -1.09 ± 0.63. In turn, GKLSGTPWTLSGATKRALLY registered an amyloid nucleation score of -0.494 ± 0.64.

The substance HTHTWT yielded an amyloid nucleation score of 1.31 ± 0.38. Substance PRSNCLHCFLLPLSNIVLCA came in with an amyloid nucleation score of 4.66 ± 0.049. TRWLGGISMGNSVFVLIRTL came in with an amyloid nucleation score of 0.416 ± 0.51.

As for FHGPKYMSILRGELICKAPG, the amyloid nucleation score entry is “inactive”. As to WQVYQFSCRAEGEDL, the amyloid nucleation score was 2.48 ± 0.12. On to SGSGNLFA, for which the amyloid nucleation score is -0.545 ± 0.45. Consider THFSPMGY, for which the amyloid nucleation score is -0.586 ± 1.1. Then VVTRNRISRAGGLRS, with 0.616 ± 0.39; and FHVIGRR, with 0.951 ± 0.58.

In turn, MSLGMCFKWRHRNIVYNLSA came in with an amyloid nucleation score of -0.408 ± 0.63. Substance TVYYNQLSD gave an amyloid nucleation score of -0.982 ± 0.76. Then NYMRYTYHSMCVLWFTVGEC, with 0.864 ± 0.41.
